Results: patent publication US20260201067A1, “DPP3 INHIBITOR FOR IMPROVEMENT OF PULMONARY FUNCTION IN CRITICALLY ILL PATIENTS” (4TEEN4 Pharmaceuticals GmbH, priority 2022, published 2026)
Entries after “also recorded” stand apart in the source; their conditions may differ.

How the values were obtained:
DPP3 = molecular target: T1, DPP3 (Homo sapiens, UniProt Q9NY33); conditions: literature; cited from earlier work
T1 sequence (Q9NY33 1-737): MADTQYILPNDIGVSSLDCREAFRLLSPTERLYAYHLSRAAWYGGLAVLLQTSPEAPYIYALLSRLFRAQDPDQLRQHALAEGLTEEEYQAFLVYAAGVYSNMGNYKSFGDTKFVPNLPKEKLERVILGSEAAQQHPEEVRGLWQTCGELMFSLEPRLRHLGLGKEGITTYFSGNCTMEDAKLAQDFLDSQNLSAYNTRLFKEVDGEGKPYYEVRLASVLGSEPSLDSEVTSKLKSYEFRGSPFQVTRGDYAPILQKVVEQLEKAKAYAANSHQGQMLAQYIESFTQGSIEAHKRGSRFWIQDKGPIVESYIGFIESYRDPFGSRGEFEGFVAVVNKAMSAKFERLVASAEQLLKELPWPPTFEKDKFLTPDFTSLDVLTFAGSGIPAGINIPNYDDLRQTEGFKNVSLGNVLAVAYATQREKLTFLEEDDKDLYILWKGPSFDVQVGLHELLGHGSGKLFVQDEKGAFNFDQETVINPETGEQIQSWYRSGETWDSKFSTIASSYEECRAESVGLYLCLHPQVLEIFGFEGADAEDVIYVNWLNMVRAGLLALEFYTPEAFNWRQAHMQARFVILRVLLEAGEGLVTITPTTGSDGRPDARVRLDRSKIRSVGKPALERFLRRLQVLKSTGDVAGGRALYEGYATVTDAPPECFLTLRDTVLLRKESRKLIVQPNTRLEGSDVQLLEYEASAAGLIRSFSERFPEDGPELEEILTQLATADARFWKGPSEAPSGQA

[1] = test system: healthy mice injected with DPP3; test: Effect of Valsartan in healthy mice injected with DPP3; type: in vivo, Black 6 mice
Protocol: In this experiment, healthy Black 6 mice (8-12 weeks, group size refer to table 8) consumed water with 50 mg/kg Valsartan per day or just water (Table 8) for a period of two weeks. Subsequently, both groups received an intravenous injection of native DPP3 (600 μg/kg) and the shortening fraction was assessed according to Gao et al., 2011 at 15, 60 and 120 minutes (FIG. 12).

healthy mice = test: Effect of native DPP3 injection in healthy mice; type: in vivo, Black 6 mice; conditions: 600 μg/kg i.v., versus PBS
Protocol: Wild type Black 6 mice (8-12 weeks, group size refer to table 3) were acclimated during 2 weeks and a baseline echocardiography was done. The mice were randomly allocated to one of the two groups and, subsequently, native DPP3 protein or PBS were injected intravenously via a retro-orbital injection with a dose of 600 μg/kg for DPP3 protein.
After DPP3 or PBS injection, cardiac function was assessed by echocardiography (Gao et al. 2011) and renal function assessed by renal resistive index (Lubas et al., 2014, Dewitte et al, 2012) at 15, 60 and 120 minutes (FIG. 3).

[2] = molecular target: T2, native human DPP3 from blood cells (human, UniProt Q9NY33 2-737); test: cell-based or functional assay
T2 sequence: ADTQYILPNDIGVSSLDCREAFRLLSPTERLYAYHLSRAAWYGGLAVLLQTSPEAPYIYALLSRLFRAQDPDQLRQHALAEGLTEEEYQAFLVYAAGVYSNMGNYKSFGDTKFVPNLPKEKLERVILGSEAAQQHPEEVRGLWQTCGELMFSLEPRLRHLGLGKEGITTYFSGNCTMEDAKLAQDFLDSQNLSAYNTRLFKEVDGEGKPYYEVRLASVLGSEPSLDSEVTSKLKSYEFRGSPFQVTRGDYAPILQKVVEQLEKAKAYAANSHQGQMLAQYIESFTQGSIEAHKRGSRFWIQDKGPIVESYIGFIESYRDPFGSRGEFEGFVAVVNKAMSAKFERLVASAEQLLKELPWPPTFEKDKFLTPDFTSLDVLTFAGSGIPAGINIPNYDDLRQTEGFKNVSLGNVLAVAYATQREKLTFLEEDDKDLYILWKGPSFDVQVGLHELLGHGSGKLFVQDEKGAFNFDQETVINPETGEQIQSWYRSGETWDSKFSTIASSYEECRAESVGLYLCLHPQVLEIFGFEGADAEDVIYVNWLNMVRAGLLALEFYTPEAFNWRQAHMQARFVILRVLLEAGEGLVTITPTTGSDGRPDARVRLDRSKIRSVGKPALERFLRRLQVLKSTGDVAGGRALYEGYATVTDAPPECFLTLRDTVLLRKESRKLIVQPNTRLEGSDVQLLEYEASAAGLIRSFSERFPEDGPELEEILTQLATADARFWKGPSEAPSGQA

Molecule: CC1C(=O)c2cc(O)c3c(c2C(O)C1O)C(=O)c1cccc(O)c1-3 (stereo not drawn) [Fluostatin B]
- inhibition of DPP3 activity (DPP3): strongly inhibit DPP3 activity

Molecule: CCCCC(=O)N(Cc1ccc(-c2ccccc2-c2nnn[nH]2)cc1)[C@H](C(=O)O)C(C)C [Valsartan]
- shortening fraction after DPP3 injection ([1]; 50 mg/kg Valsartan per day in water for two weeks, then native DPP3 600 μg/kg i.v.): rescued; also recorded: no signs of heart dysfunction

Molecule: Cc1cc(=O)c2c(cc(O)c3c4c(O)cccc4c(=O)c32)c1=O [Fluostatin A]
- inhibition of DPP3 activity (DPP3): strongly inhibit DPP3 activity

B1: native DPP3: native human DPP3 purified from human erythrocyte lysate (protein)
chain: T2 sequence
- renal resistive index (healthy mice): renal resistive index increase
- shortening fraction (healthy mice): significantly reduced shortening fraction
- renal resistive index (healthy mice; listed as DPP3): increased renal resistive index
- shortening fraction (healthy mice; listed as DPP3): shortening fraction reduction
- shortening fraction after DPP3 injection ([1]; native DPP3 600 μg/kg i.v., no Valsartan): significant decrease in the shortening fraction

B2: murine monoclonal anti-DPP3 antibody AK1967 (antibody, V domains shown)
VH: QVTLKESGPGILQPSQTLSLTCSFSGFSLSTSGMSVGWIRQPSGKGLEWLAHIWWNDNKSYNPALKSRLTISRDTSNNQVFLKIASVVTADTGTYFCARNYSYDYWGQGTTLTVSS
VL: DVVVTQTPLSLSVSLGDPASISCRSSRSLVHSIGSTYLHWYLQKPGQSPKLLIYKVSNRFSGVPDRFSGSGSGTDFTLKISRVEAEDLGVYFCSQSTHVPWTFGGGTKLEIK
- IC50 (read off the curve) [2]: ~10 ng/mL
